Experimental data as given in paper PMC6555819, “Comprehensive study of nuclear receptor DNA binding provides a revised framework for understanding receptor specificity”.

Experiments:
[1] = target: LXRa:RXRa (Homo sapiens, UniProt Q13133;P19793 full;full); assay: no ligand; PBM; 270 nM : 90 nM RXRa; PBS pH 7.4, 2% milk, 0.02% Triton X-100, 1 mM DTT, BSA, 0.4 mg/ml salmon testes DNA; settings: tags: His kept;His cleaved; copies: 1;1; label: surface-attached array probe
In short: (§1)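 Antibodies against each partner of ligand-free nuclear receptor dimers (one per run) detected binding on custom Agilent 4×180K protein-binding microarrays after 1 h incubation. The double-stranded probes had 34-nt variable regions carrying direct-repeat seeds, single-nucleotide variants, half-site ablations and random human genomic background sequences. Binding z-scores, from regression-normalized fluorescence, use the random background probes as reference.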

[2] = target: FXR:RXRa (Homo sapiens, UniProt Q96RI1;P19793 full;full); assay: as above; settings: tags: His kept;His cleaved; copies: 1;1; label: surface-attached array probe
In short: as §1

[3] = target: RARb:RXRa (Homo sapiens, UniProt P10826;P19793 full;full); assay: as above; settings: tags: His kept;His cleaved; copies: 1;1; label: surface-attached array probe
In short: as §1

[4] = target: PPARa:RXRa (Homo sapiens, UniProt Q07869;P19793 full;full); assay: as above; settings: tags: GST kept;His cleaved; copies: 1;1; label: surface-attached array probe
In short: as §1

[5] = target: RXRa (Homo sapiens, UniProt P19793); assay: no ligand; PBM; 180 nM; PBS pH 7.4, 2% milk, 0.02% Triton X-100, 1 mM DTT, BSA, 0.4 mg/ml salmon testes DNA; settings: tags: His cleaved; chain copies: 2; label: surface-attached array probe
[6] = target: RARg:RXRa (Homo sapiens, UniProt P13631;P19793 full;full); assay: no ligand; PBM; 270 nM : 90 nM RXRa; PBS pH 7.4, 2% milk, 0.02% Triton X-100, 1 mM DTT, BSA, 0.4 mg/ml salmon testes DNA; settings: tags: His kept;His cleaved; copies: 1;1; label: surface-attached array probe
In short: as §1

RARb:RXRa, sequence (P10826 whole entry, chain 1 of 2): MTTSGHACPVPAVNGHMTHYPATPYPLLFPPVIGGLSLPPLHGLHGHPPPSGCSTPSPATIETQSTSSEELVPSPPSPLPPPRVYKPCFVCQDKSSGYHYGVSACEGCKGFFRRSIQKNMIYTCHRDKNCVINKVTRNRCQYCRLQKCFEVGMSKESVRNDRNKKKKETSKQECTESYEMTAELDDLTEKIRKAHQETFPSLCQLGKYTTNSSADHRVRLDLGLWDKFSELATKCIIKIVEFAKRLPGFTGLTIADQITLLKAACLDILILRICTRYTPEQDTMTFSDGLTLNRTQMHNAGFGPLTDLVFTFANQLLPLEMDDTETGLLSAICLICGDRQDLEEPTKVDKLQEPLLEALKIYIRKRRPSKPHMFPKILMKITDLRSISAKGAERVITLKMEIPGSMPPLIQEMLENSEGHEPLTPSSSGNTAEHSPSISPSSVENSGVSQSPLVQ
RARb:RXRa, sequence (P19793 whole entry, chain 2 of 2): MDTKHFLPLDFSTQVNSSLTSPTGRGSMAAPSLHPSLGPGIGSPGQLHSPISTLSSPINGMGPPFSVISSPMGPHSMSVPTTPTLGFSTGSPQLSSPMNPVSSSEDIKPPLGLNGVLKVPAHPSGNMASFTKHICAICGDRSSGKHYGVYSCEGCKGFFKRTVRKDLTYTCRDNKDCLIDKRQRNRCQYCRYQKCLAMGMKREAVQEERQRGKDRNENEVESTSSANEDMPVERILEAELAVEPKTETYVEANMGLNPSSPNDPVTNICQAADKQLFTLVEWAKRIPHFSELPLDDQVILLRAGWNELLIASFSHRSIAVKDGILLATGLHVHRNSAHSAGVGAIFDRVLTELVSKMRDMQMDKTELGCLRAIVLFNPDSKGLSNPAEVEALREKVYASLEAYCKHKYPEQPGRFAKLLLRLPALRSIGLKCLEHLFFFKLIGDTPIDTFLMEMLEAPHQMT
PPARa:RXRa, sequence (Q07869 whole entry, chain 1 of 2): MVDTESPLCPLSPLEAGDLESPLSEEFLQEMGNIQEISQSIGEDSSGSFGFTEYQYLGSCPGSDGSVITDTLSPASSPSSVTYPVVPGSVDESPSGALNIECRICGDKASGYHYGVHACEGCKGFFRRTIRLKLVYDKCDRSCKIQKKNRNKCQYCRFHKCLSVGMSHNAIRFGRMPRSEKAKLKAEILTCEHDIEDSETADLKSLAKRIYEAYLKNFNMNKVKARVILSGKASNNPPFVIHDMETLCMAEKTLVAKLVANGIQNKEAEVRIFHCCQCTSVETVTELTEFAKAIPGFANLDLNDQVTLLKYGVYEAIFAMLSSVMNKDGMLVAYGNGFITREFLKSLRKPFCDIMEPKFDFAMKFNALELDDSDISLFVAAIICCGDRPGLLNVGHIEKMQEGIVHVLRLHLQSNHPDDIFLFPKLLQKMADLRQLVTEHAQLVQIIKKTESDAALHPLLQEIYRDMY
PPARa:RXRa, sequence (P19793 whole entry, chain 2 of 2): as the sequence (P19793 whole entry, chain 2 of 2) above
RXRa, sequence (P19793 whole entry): as the sequence (P19793 whole entry, chain 2 of 2) above
LXRa:RXRa, sequence (Q13133 whole entry, chain 1 of 2): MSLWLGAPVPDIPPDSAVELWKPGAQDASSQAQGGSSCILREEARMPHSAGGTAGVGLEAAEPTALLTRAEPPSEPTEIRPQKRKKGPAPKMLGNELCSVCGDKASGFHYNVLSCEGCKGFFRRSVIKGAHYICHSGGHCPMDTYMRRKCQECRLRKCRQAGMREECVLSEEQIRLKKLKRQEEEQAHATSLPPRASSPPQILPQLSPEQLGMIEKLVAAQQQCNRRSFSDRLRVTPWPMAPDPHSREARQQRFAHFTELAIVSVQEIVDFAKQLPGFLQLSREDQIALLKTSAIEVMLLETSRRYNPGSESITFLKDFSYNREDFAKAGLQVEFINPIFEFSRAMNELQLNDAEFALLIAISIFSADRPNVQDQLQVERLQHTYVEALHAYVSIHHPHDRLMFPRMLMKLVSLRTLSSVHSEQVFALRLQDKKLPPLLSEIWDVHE
LXRa:RXRa, sequence (P19793 whole entry, chain 2 of 2): as the sequence (P19793 whole entry, chain 2 of 2) above
FXR:RXRa, sequence (Q96RI1 whole entry, chain 1 of 2): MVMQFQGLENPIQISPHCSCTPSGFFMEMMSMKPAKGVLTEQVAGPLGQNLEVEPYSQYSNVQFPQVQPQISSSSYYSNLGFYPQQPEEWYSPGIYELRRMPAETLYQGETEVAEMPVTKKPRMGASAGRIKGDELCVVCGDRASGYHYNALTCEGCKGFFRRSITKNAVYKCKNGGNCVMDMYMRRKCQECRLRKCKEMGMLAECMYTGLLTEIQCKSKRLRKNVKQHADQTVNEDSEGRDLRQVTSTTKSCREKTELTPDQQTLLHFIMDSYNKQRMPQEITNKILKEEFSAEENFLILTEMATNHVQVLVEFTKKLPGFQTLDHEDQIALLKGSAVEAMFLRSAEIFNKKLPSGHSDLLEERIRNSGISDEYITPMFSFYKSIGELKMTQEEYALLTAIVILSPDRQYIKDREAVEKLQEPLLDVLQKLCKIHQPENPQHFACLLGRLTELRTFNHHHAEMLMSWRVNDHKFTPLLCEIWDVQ
FXR:RXRa, sequence (P19793 whole entry, chain 2 of 2): as the sequence (P19793 whole entry, chain 2 of 2) above
RARg:RXRa, sequence (P13631 whole entry, chain 1 of 2): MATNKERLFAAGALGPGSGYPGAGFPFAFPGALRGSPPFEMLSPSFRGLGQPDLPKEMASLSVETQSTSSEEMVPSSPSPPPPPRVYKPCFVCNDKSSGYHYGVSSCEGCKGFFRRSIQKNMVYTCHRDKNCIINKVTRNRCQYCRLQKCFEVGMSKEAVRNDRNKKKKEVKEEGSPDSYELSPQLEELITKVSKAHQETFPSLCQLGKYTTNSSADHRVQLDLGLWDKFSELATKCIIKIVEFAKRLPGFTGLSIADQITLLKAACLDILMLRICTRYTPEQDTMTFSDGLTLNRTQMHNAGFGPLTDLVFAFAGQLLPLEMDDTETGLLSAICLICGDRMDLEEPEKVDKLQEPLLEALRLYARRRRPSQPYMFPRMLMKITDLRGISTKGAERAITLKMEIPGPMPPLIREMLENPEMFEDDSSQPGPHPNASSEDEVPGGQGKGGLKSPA
RARg:RXRa, sequence (P19793 whole entry, chain 2 of 2): as the sequence (P19793 whole entry, chain 2 of 2) above

| Binder | binding signal [1] | other results |
| --- | --- | --- |
| NRC3_random_hg19_425_o1 (dsDNA) DNA 1: GCCTGTTAGGTTGATTCTATGTCTTGGCTATTGTGTGCGATTGACAGCGTAGAATGAAGG DNA 2: CCTTCATTCTACGCTGTCAATCGCACACAATAGCCAAGACATAGAATCAACCTAACAGGC | 0.31 PBM z-score against 500 random probes | binding signal [2]: 0.23 PBM z-score against 500 random probes |
| NRC3_random_hg19_255_o1 (dsDNA) DNA 1: GCGGAGGGCAGGCAGGCCTGGAGGAGCATGTGGTGTGCGATTGACAGCGTAGAATGAAGG DNA 2: CCTTCATTCTACGCTGTCAATCGCACACCACATGCTCCTCCAGGCCTGCCTGCCCTCCGC | -0.19 PBM z-score against 500 random probes | binding signal [2]: -0.16 PBM z-score against 500 random probes |
| NRC3_random_hg19_69_o1 (dsDNA) DNA 1: GCCCAGGTGGCAGGATCCCTGCATCTGGTTTCCTCAGCGATTGACAGCGTAGAATGAAGG DNA 2: CCTTCATTCTACGCTGTCAATCGCTGAGGAAACCAGATGCAGGGATCCTGCCACCTGGGC | -0.63 PBM z-score against 500 random probes | binding signal [2]: -0.63 PBM z-score against 500 random probes |
| NRC3_wobSeed21_DR0_A19C_o1 (dsDNA) DNA 1: GCCGTCAAAGTTCAAGGTCACGTAACAGAAAGCAGCGCGATTGACAGCGTAGAATGAAGG DNA 2: CCTTCATTCTACGCTGTCAATCGCGCTGCTTTCTGTTACGTGACCTTGAACTTTGACGGC | 6.86 PBM z-score against 500 random probes | binding signal [3]: 5.98 PBM z-score against 500 random probes; binding signal [4]: 6.5 PBM z-score against 500 random probes; binding signal [2]: 7.82 PBM z-score against 500 random probes |
| NRC3_random_hg19_287_o1 (dsDNA) DNA 1: GCTCACTCAGAAGAGCAGAGCGACAGTGAATCTGAGGCGATTGACAGCGTAGAATGAAGG DNA 2: CCTTCATTCTACGCTGTCAATCGCCTCAGATTCACTGTCGCTCTGCTCTTCTGAGTGAGC | 0.05 PBM z-score against 500 random probes | binding signal [5]: 0.27 PBM z-score against 500 random probes; binding signal [3]: -0.16 PBM z-score against 500 random probes |
| NRC3_random_hg19_272_o1 (dsDNA) DNA 1: GCGTGCATTTGCTCCCAGAGGCTCTGCTCTTGCCCTGCGATTGACAGCGTAGAATGAAGG DNA 2: CCTTCATTCTACGCTGTCAATCGCAGGGCAAGAGCAGAGCCTCTGGGAGCAAATGCACGC | -0.36 PBM z-score against 500 random probes | binding signal [3]: -0.53 PBM z-score against 500 random probes |
| NRC3_wobSeed42_DR1_A6T_o1 (dsDNA) DNA 1: GCTATTCAGGGTCAAAGGCCAGAGTACGAATGTCGAGCGATTGACAGCGTAGAATGAAGG DNA 2: CCTTCATTCTACGCTGTCAATCGCTCGACATTCGTACTCTGGCCTTTGACCCTGAATAGC | 7.1 PBM z-score against 500 random probes | binding signal [4]: 6.67 PBM z-score against 500 random probes |
| NRC3_wobSeed134_DR5_G11T_o1 (dsDNA) DNA 1: GCGCTGCTAGTTCAACTGATGGTCAGCTAAAGCTCGGCGATTGACAGCGTAGAATGAAGG DNA 2: CCTTCATTCTACGCTGTCAATCGCCGAGCTTTAGCTGACCATCAGTTGAACTAGCAGCGC | 0.25 PBM z-score against 500 random probes | binding signal [5]: 0.29 PBM z-score against 500 random probes; binding signal [4]: 0.24 PBM z-score against 500 random probes |
| NRC3_random_hg19_311_o1 (dsDNA) DNA 1: GCTCACTTATGAAGCTTAGGTTGGCTGGATATGAAAGCGATTGACAGCGTAGAATGAAGG DNA 2: CCTTCATTCTACGCTGTCAATCGCTTTCATATCCAGCCAACCTAAGCTTCATAAGTGAGC | 0.15 PBM z-score against 500 random probes | binding signal [4]: -0.15 PBM z-score against 500 random probes |
| NRC3_random_hg19_94_o1 (dsDNA) DNA 1: GCACTATCTTGTGTCTCATCTGAGACATAGATGGATGCGATTGACAGCGTAGAATGAAGG DNA 2: CCTTCATTCTACGCTGTCAATCGCATCCATCTATGTCTCAGATGAGACACAAGATAGTGC | -0.69 PBM z-score against 500 random probes | binding signal [4]: -0.62 PBM z-score against 500 random probes |
| NRC3_random_hg19_261_o1 (dsDNA) DNA 1: GCCTGGCTCCAGACAGACAAGAAGACTCCTTCAGTCGCGATTGACAGCGTAGAATGAAGG DNA 2: CCTTCATTCTACGCTGTCAATCGCGACTGAAGGAGTCTTCTTGTCTGTCTGGAGCCAGGC | -1.08 PBM z-score against 500 random probes | binding signal [5]: -0.45 PBM z-score against 500 random probes |
| NRC3_random_hg19_258_o1 (dsDNA) DNA 1: GCGTAAGATGGCAGGTGCCCAGAGCTAAGCTTTGATGCGATTGACAGCGTAGAATGAAGG DNA 2: CCTTCATTCTACGCTGTCAATCGCATCAAAGCTTAGCTCTGGGCACCTGCCATCTTACGC | -1 PBM z-score against 500 random probes | binding signal [5]: -0.61 PBM z-score against 500 random probes; binding signal [6]: -0.94 PBM z-score against 500 random probes |
| NRC3_wobSeed120_DR4_T8A_o1 (dsDNA) DNA 1: GCCCGAGAAGGTTACGAGGGGGCATTCAGTGCGAATGCGATTGACAGCGTAGAATGAAGG DNA 2: CCTTCATTCTACGCTGTCAATCGCATTCGCACTGAATGCCCCCTCGTAACCTTCTCGGGC | 8.13 PBM z-score against 500 random probes | binding signal [6]: 4.2 PBM z-score against 500 random probes |
| NRC3_wobSeed29_DR1_G9A_o1 (dsDNA) DNA 1: GCGCTTACAGGTCAAAGGTTATAGCATGAATAGAATGCGATTGACAGCGTAGAATGAAGG DNA 2: CCTTCATTCTACGCTGTCAATCGCATTCTATTCATGCTATAACCTTTGACCTGTAAGCGC | 6.61 PBM z-score against 500 random probes | binding signal [2]: 8.14 PBM z-score against 500 random probes |
| NRC3_random_hg19_368_o1 (dsDNA) DNA 1: GCTAAGAAACTCAGTCAACATGATATCTATGGCTAAGCGATTGACAGCGTAGAATGAAGG DNA 2: CCTTCATTCTACGCTGTCAATCGCTTAGCCATAGATATCATGTTGACTGAGTTTCTTAGC | 0.24 PBM z-score against 500 random probes | – |
| NRC3_random_hg19_104_o1 (dsDNA) DNA 1: GCTGTAATCACGGTGTGTGAACTACTCATATCGAGTGCGATTGACAGCGTAGAATGAAGG DNA 2: CCTTCATTCTACGCTGTCAATCGCACTCGATATGAGTAGTTCACACACCGTGATTACAGC | -0.03 PBM z-score against 500 random probes | – |
| NRC3_random_hg19_256_o1 (dsDNA) DNA 1: GCAGGAGAAACCCACGCTGGTGTCATCACAGGTTCAGCGATTGACAGCGTAGAATGAAGG DNA 2: CCTTCATTCTACGCTGTCAATCGCTGAACCTGTGATGACACCAGCGTGGGTTTCTCCTGC | -0.16 PBM z-score against 500 random probes | – |
| NRC3_random_hg19_129_o1 (dsDNA) DNA 1: GCGAAGTTTAGAAACTTGCCCTAAGTCACCTAACTAGCGATTGACAGCGTAGAATGAAGG DNA 2: CCTTCATTCTACGCTGTCAATCGCTAGTTAGGTGACTTAGGGCAAGTTTCTAAACTTCGC | -0.25 PBM z-score against 500 random probes | – |
| NRC3_random_hg19_234_o1 (dsDNA) DNA 1: GCTAACTGGCACCTTTGGGAACTACATGTTTCCTGTGCGATTGACAGCGTAGAATGAAGG DNA 2: CCTTCATTCTACGCTGTCAATCGCACAGGAAACATGTAGTTCCCAAAGGTGCCAGTTAGC | -0.32 PBM z-score against 500 random probes | – |
| NRC3_random_hg19_431_o1 (dsDNA) DNA 1: GCAGCCATATGCAAATGAGTACATCCTGTGTGATTCGCGATTGACAGCGTAGAATGAAGG DNA 2: CCTTCATTCTACGCTGTCAATCGCGAATCACACAGGATGTACTCATTTGCATATGGCTGC | -0.4 PBM z-score against 500 random probes | – |
| NRC3_random_hg19_163_o1 (dsDNA) DNA 1: GCCAGTGAGCCGAGATCATGCCACTGCACTCCAGCCGCGATTGACAGCGTAGAATGAAGG DNA 2: CCTTCATTCTACGCTGTCAATCGCGGCTGGAGTGCAGTGGCATGATCTCGGCTCACTGGC | -0.46 PBM z-score against 500 random probes | – |
| NRC3_random_hg19_203_o1 (dsDNA) DNA 1: GCGATGTAACAATGCAGGGTGGTCTTGGTCTTTGGCGCGATTGACAGCGTAGAATGAAGG DNA 2: CCTTCATTCTACGCTGTCAATCGCGCCAAAGACCAAGACCACCCTGCATTGTTACATCGC | -0.49 PBM z-score against 500 random probes | – |
| NRC3_random_hg19_430_o1 (dsDNA) DNA 1: GCGAAGGACCTTTAGATCCTGAGACAGAACTTAGGCGCGATTGACAGCGTAGAATGAAGG DNA 2: CCTTCATTCTACGCTGTCAATCGCGCCTAAGTTCTGTCTCAGGATCTAAAGGTCCTTCGC | -0.59 PBM z-score against 500 random probes | – |
| NRC3_random_hg19_57_o1 (dsDNA) DNA 1: GCTAGCTGAGACTACATGCCACCATGCCTGGCTAATGCGATTGACAGCGTAGAATGAAGG DNA 2: CCTTCATTCTACGCTGTCAATCGCATTAGCCAGGCATGGTGGCATGTAGTCTCAGCTAGC | -0.61 PBM z-score against 500 random probes | – |
| NRC3_random_hg19_145_o1 (dsDNA) DNA 1: GCGCCCAGTAGTTTGAGACCAGCCTGGACAACATGGGCGATTGACAGCGTAGAATGAAGG DNA 2: CCTTCATTCTACGCTGTCAATCGCCCATGTTGTCCAGGCTGGTCTCAAACTACTGGGCGC | -0.81 PBM z-score against 500 random probes | – |
| NRC3_random_hg19_442_o1 (dsDNA) DNA 1: GCTACGGAGTGCTGATCAGTCAGGTTGGAGATGGAAGCGATTGACAGCGTAGAATGAAGG DNA 2: CCTTCATTCTACGCTGTCAATCGCTTCCATCTCCAACCTGACTGATCAGCACTCCGTAGC | -0.9 PBM z-score against 500 random probes | – |
